Test in all cases: electrochemical DNA sensor
The target in one data set is thrombin (bovine, UniProt P00735;P00735 318-366;367-625).
The target of data set [1] is T1, gene 32 protein (g32p), full-length (bacteriophage T4, UniProt P03695 1-301).
T1 sequence: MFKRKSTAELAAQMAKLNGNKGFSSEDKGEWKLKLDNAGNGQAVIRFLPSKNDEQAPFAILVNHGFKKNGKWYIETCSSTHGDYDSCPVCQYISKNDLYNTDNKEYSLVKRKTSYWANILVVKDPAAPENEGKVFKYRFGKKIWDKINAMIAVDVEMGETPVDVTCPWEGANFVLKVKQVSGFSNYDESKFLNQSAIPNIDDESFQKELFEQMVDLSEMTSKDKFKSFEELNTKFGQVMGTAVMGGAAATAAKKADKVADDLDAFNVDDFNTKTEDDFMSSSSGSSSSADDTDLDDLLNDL

For data set [2], the target named is T1, gene 32 protein (g32p), full-length. The source holds these as a separate data set.

Here are results for two molecules from publication PMC4303326.

What is called Kd is the constant that tells how readily two partners part at equilibrium. Higher therefore signals weaker binding.

B1: (dT)21 probe (ssDNA)
DNA: TTTTTTTTTTTTTTTTTTTTT
modifications: 5' thiol; 3' methylene blue
As to B1, the binding result with thrombin is listed as “no binding”. In data set [1], this molecule returned a Kd of approximately 100 nM.

B2: (dT)21/(dA)21 duplex (dsDNA)
DNA 1: TTTTTTTTTTTTTTTTTTTTT
DNA 2: AAAAAAAAAAAAAAAAAAAAA
modifications: 5' thiol; 3' methylene blue on dT strand
Turning to B2, in data set [2], the binding result is on record as “no binding”.
